Read-outs that look alike come from different tables or passages of the source.
Assays:
[1] = biological target: T1, SARS-CoV-2 spike D614, on pseudovirus (SARS-CoV-2, UniProt P0DTC2 14-1273); assay: cell-based or functional assay
[2] = biological target: T1, SARS-CoV-2 spike D614, on pseudovirus; assay: cell-based or functional assay; remark: listed apart in the source
[3] = biological target: T1, SARS-CoV-2 spike D614, on pseudovirus; assay: cell-based or functional assay; remark: listed apart in the source
SARS-CoV S1 = SARS-CoV S1 (SARS-CoV, UniProt P59594 14-667); assay: Octet (BLI) specificity, Fig. 12
MERS-CoV RBD = biological target: T2, MERS-CoV RBD (MERS-CoV, UniProt K9N5Q8 367-606); assay: Octet (BLI) specificity, Fig. 12
T2 sequence: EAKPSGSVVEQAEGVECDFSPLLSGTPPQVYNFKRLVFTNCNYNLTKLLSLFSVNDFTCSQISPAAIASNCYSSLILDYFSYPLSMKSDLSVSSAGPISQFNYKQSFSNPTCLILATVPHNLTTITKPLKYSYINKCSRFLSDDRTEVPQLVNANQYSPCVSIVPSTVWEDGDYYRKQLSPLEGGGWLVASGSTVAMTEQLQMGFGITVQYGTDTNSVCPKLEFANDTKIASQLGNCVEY

B1: No. 139 항체 (Full IgG) (antibody, V domains shown)
VH: QITLKESGPTLVKPTQTLTLTCSFSGFSLSTSGVGVGWIRQPPGKALEWLALIDWDDNKYHTTSLKTRLTISKDTSKNQVVLTMTNMDPVDTATYYCARIPGFLRYRNRYYYYGMDVWGQGTTVTVSS
VL: ELVLTQPPSVSAAPGQKVTISCSGSSSNIGNNYVSWYQQLPGTAPKLLIYDNNKRPSGIPDRFSGSKSGTSATLGITGLQTGDEADYYCGTWDSSLSAGVFGGGTELTVL
notes: also called CT-P59; Regdanvimab
pseudovirus 중화능 IC50 [1]: 0.378 ng/mL | pseudovirus 중화능 IC50 [2]: 0.35 ng/mL | pseudovirus 중화능 IC50 [3]: 0.535 ng/mL | binding result (SARS-CoV S1): no binding | binding result (MERS-CoV RBD): no binding
